The target in this assay is BnaA10.ABF2-cYFP (Brassica napus).

For “BnaA6.RGA-nYFP (full length) (natural protein)”, the dual-luciferase assay in tobacco leaves: activity of pBnaC9.RAB18-LUC with BnaA6.RGA expressed together with BnaA10.ABF2, against the reporter only (BnaA10.ABF2 alone: 3.7 times) was 6.5 times.

Turning to “BnaC7.RGA-nYFP (full length) (natural protein)”, the dual-luciferase assay in tobacco leaves: activity of pBnaC9.RAB18-LUC with BnaC7.RGA expressed together with BnaA10.ABF2, against the reporter only (BnaA10.ABF2 alone: 3.7 times) was 11.8 times.

Source of the values: paper PMC7240051.
